Data: patent US20230227838A1, “ENHANCED CELL SURVIVAL AGAINST BIOTIC AND ABIOTIC STRESSES THROUGH SALICYLICK ACID-INDUCED NPR1 CONDENSATES” (priority 2020, published 2023)

B1: UGT85A1, UDP-Glycosyltransferase superfamily protein (protein, UniProt Q9SK82 1-489, looked up)
UDP-glycosyltransferase 85A1: MGSQIIHNSQKPHVVCVPYPAQGHINPMMRVAKLLHARGFYVTFVNTVYNHNRFLRSRGSNALDGLPSFRFESIADGLPETDMDATQDITALCESTMKNCLAPFRELLQRINAGDNVPPVSCIVSDGCMSFTLDVAEELGVPEVLFWTTSGCAFLAYLHFYLFIEKGLCPLKDESYLTKEYLEDTVIDFIPTMKNVKLKDIPSFIRTTNPDDVMISFALRETERAKRASAIILNTFDDLEHDVVHAMQSILPPVYSVGPLHLLANREIEEGSEIGMMSSNLWKEEMECLDWLDTKTQNSVIYINFGSITVLSVKQLVEFAWGLAGSGKEFLWVIRPDLVAGEEAMVPPDFLMETKDRSMLASWCPQEKVLSHPAIGGFLTHCGWNSILESLSCGVPMVCWPFFADQQMNCKFCCDEWDVGIEIGGDVKREEVEAVVRELMDGEKGKKMREKAVEWQRLAEKATEHKLGSSVMNFETVVSKFLLGQKSQD
B2: ARD3, acireductone dioxygenase 3 (protein, UniProt Q8W108 1-199, looked up)
Acireductone dioxygenase 3: MGEVVKDGREEVIQAWYMDDSEEDQRLPHHKDPKEFLSLDKLAELGVLSWRLDADNYETDEDLKKIRESRGYSYMDFCEVCPEKLPNYEVKVKSFFEEHLHTDEEIRYCVAGSGYFDVRDRNEAWIRVWVKKGGMIVLPAGIYHRFTVDSDNYIKAMRLFVGEPVWTPYNRPHDHLPARKEYIDNFVKVNEGGVIDASA
B3: UGT74F2, UDP-glucosyltransferase 74F2 (protein, UniProt O22822 1-449, looked up)
UDP-glycosyltransferase 74F2: MEHKRGHVLAVPYPTQGHITPFRQFCKRLHFKGLKTTLALTTFVFNSINPDLSGPISIATISDGYDHGGFETADSIDDYLKDFKTSGSKTIADIIQKHQTSDNPITCIVYDAFLPWALDVAREFGLVATPFFTQPCAVNYVYYLSYINNGSLQLPIEELPFLELQDLPSFFSVSGSYPAYFEMVLQQFINFEKADFVLVNSFQELELHENELWSKACPVLTIGPTIPSIYLDQRIKSDTGYDLNLFESKDDSFCINWLDTRPQGSVVYVAFGSMAQLTNVQMEELASAVSNFSFLWVVRSSEEEKLPSGFLETVNKEKSLVLKWSPQLQVLSNKAIGCFLTHCGWNSTMEALTFGVPMVAMPQWTDQPMNAKYIQDVWKAGVRVKTEKESGIAKREEIEFSIKEVMEGERSKEMKKNVKKWRDLAVKSLNEGGSTDTNIDTFVSRVQSK
B4: ISU1, SufE/NifU family protein (protein, UniProt O49627 51-167, looked up)
Iron-sulfur cluster assembly protein 1: PNVGTGLVGAPACGDVMKLQIKVDEKTGQIVDARFKTFGCGSAIASSSVATEWVKGKAMEDVLTIKNTEIAKHLSLPPVKLHCSMLAEDAIKAAVKDYKEKRVKTNGAAAAGETTQA
B5: G6PD6, glucose-6-phosphate dehydrogenase 6 (protein, UniProt Q9FJI5 1-515, looked up)
Glucose-6-phosphate 1-dehydrogenase 6, cytoplasmic: MGSGQWHVEKRSTFRNDSFVREYGIVPETGCLSIIVLGASGDLAKKKTFPALFNLYRQGFLNPDEVHIFGYARTKISDEELRDRIRGYLVDEKNAEQAEALSKFLQLIKYVSGPYDAEEGFQRLDKAISEHEISKNSTEGSSRRLFYLALPPSVYPSVCKMIKTCCMNKSDLGGWTRIVVEKPFGKDLESAEQLSSQIGELFDESQIYRIDHYLGKELVQNMLVLRFANRFFLPLWNRDNIENVQIVFREDFGTEGRGGYFDEYGIIRDIIQNHLLQVLCLVAMEKPISLKPEHIRDEKVKVLQSVVPISDDEVVLGQYEGYRDDDTVPNDSNTPTFATTILRIHNERWEGVPFILKAGKALNSRKAEIRIQFKDVPGDIFRCQKQGRNEFVIRLQPSEAMYMKLTVKQPGLDMNTVQSELDLSYGQRYQGVAIPEAYERLILDTIKGDQQHFVRRDELKVAWEIFTPLLHRIDKGEVKSIPYKPGSRGPKEADQLLEKAGYLQTHGYIWIPPTL
B6: NSP5, nitrile specifier protein 5 (protein, UniProt Q93XW5 1-326, looked up)
Thiohydroximate-O-sulfate sulfur/sulfate-lyase (nitrile-forming) NSP5: MCPVENKWLKVGQKGAGPGARSSHAMTVVGNKVYCFGGELKPTIHIDNDLYVFDLETQEWSIAPATGEAPFPCFGVSMVTIGSTIYVYGGRDDKRRYNGLHSYDTETNEWKLLAPVEEGLPGRSYHSMAGDDRKVYVFGGVTAKGRVNTLHAYDVVDQKWVEYPAAGEACKGRGAPGLVVVEGRIWVLFGFDGNELGDIHCFDLASEQWKAVETTGDVPAARSVFPAVSYGKYIVIYGGEEEPHELMHMGAGKMSGEVYQLDTETLVWERIVCGNEEEKPSQRGWCAFTKAVKDGEEGLLVHGGNSPTNERLDDLVFWGFSHLNVN
B7: LON2, lon protease 2 (protein, UniProt O64948 1-888, looked up)
Lon protease homolog 2, peroxisomal: MAETVELPSRLAILPFRNKVLLPGAIIRIRCTSHSSVTLVEQELWQKEEKGLIGILPVRDDAEGSSIGTMINPGAGSDSGERSLKFLVGTTDAQKSDAKDQQDLQWHTRGVAARALHLSRGVEKPSGRVTYVVVLEGLSRFNVQELGKRGPYSVARITSLEMTKAELEQVKQDPDFVALSRQFKTTAMELVSVLEQKQKTGGRTKVLLETVPIHKLADIFVASFEMSFEEQLSMLDSVDLKVRLSKATELVDRHLQSIRVAEKITQKVEGQLSKSQKEYLLRQQMRAIKEELGDNDDDEDDVAALERKMQAAGMPSNIWKHAQRELRRLKKMQPQQPGYNSSRVYLELLADLPWDKASEEHELDLKAAKERLDSDHYGLAKVKQRIIEYLAVRKLKPDARGPVLCFVGPPGVGKTSLASSIAAALGRKFVRLSLGGVKDEADIRGHRRTYIGSMPGRLIDGLKRVGVCNPVMLLDEIDKTGSDVRGDPASALLEVLDPEQNKSFNDHYLNVPYDLSKVVFVATANRVQPIPPPLLDRMELIELPGYTQEEKLKIAMRHLIPRVLDQHGLSSEFLKIPEAMVKNIIQRYTREAGVRSLERNLAALARAAAVMVAEHEQSLPLSKDVQKLTSPLLNGRMAEGGEVEMEVIPMGVNDHEIGGTFQSPSALVVDETMLEKILGPPRFDDSEAADRVASAGVSVGLVWTTFGGEVQFVEATSMVGKGEMHLTGQLGDVIKESAQLALTWVRARASDFKLALAGDMNVLDGRDIHIHFPAGAVPKDGPSAGVTLVTALVSLFSQKRVRADTAMTGEMTLRGLVLPVGGIKDKILAAHRYGIKRVILPQRNSKDLVEVPAAVLSSLEVILAKRMEDVLENAFEGGCPWRNNYSKL
B8: ADF6 (protein, UniProt Q9ZSK2 1-146, looked up)
Actin-depolymerizing factor 6: MSFRGLSRPNAISGMGVADESKTTFLELQRKKTHRYVVFKIDESKKEVVVEKTGNPTESYDDFLASLPDNDCRYAVYDFDFVTSENCQKSKIFFFAWSPSTSGIRAKVLYSTSKDQLSRELQGIHYEIQATDPTEVDLEVLRERAN
B9: UBP2, ubiquitin-specific protease 2 (protein, UniProt Q8W4N3 1-961, looked up)
Ubiquitin carboxyl-terminal hydrolase 2: MGKKAKKKARAPTKEIQTMEISKKVSEEPPSQAGEIAEGDVKAVKETQACVHFDKALNLEKVLDKIKSSRQIKCAECNEGVYGKRGTKAKGSKGKKDFSSSDPKSNNKAIWLCLECGCYVCGGVGLPNGPQSHVLRHSRVTRHRLVIQWENPQLRWCFPCQLLLPVEKEDNGEKKDVLSEVVKLIKGRSLNNLASSDIEDQCSGSGSITSDIKLEGAVTSDIEARDGYVVRGLVNLGNTCFFNSIMQNLLSLDRLRDHFLKENGSGVGGPLASSLRKLFTETKPEAGLKSVINPRAFFGSFCSKAPQFRGYDQHDSHELLRCLLDSLSTEESALRKKRGVSDNDEKSTTLIESVFGGETSSIVSCMECGHSSKVYEPFLDLSLPVPFKKSPPKKPQPVSRAKKAKLPPKRVPKNVSKVSKVSKVLPGMVLSELNSSGKSMAVTADSDTSCSSLAPLDNGPVLETPSVLTLDNNQASESASQSDTGFDGSWLDFIGPETSGDETNLDMQEDGIDNVITAEVNQIVPSPNIVANSSVSSGDQTLEGNTERLMQDYEEIAKAEANLDEKDVQAMQSDECPATSGISAEFSQASCIGCDPGIGESSSSVNPWDEEELPLVVADSQILYMPYKEISCNDKSVEGECEASSSFVTGDHEPQNSDFVDFGGLFDEPETTEGPVFGPPSKAEASGVGFMAFSSESDPEEIDDSDLPVSVERCLGHFTKHEILSDDNAWNCENCSKNLKLQRLREKRKSNEDESRSSNTSNGWVKENEDEGFGETEILAVKQDPNDTSCVKDHSSDGRKAARIHSADESESKGTQDEDEDSEKVITVKRDATKKVLINKAPPVLTIHLKRFSQDLRGRLSKLNGHVAFKEVIDLRQYMDSRCSGEDPPVYRLAGLVEHSGTMRGGHYVAYVRGGQRVKETDSSSTAWYNVSDAYVRQVSLEKVLHSEAYILFYERIFSQE
B10: atnudt5, NUDT5, nudix hydrolase homolog 5 (protein, UniProt Q9SJC6 1-302, looked up)
Nudix hydrolase 5: MGLTKNFAFLVFCCQRYCSMDGEAFEISLLDGEEDRFGGTVVNLMEVESMTIGDFDSKLDVSLKAWKDQGKKGIWIKLPSELSSLVDTAIKKGFTYHHAENEYVMLTFWLPEPPSTLPCNASHRIGIGAFVLNKNGEMLVVQENSGYFKDKNVWKVPTGTIKEGESIWAGAVREVKEETDIDAEFVEVLSFMESHQAVWQRKTDIFFVCELEARTFEIQKQDSEIHAAKWMPVEEYVNQPYHNKEGNEMFKLIANICLKRSREKYTGFVLTTNSAKKSLYCSVDHANLLKETADQASTSLSD
B11: CLIP-associated protein (protein, UniProt Q8RWY6 1-1439, looked up)
CLIP-associated protein: MEEALEMARAKDTKERMAAVERLHQLLEASRKSLSPAEVTSLVDSCLDLLKDSNFRVSQGALQALASAAVLAGEHLKLHLNALVPAVVERLGDSKQPVRDAARRLLTTLMEVSSPTIIVERAGSYAWMHKSWRVREEFARTVTSAIGLFASTELPLQRVILAPILQMLNDPNQAVREAAILCIEEMYMQGGSQFREELQRHHLPSYMVKDINARLERIEPQLRSTDGRSAHHVVNEVKASSVNPKKSSPRAKAPTRENSLFGGDADITEKPIEPIKVYSEKELIREFEKIAATLVPEKDWSMRISAMRRVEGLVAGGATDYSCFRGLLKQLVGPLSTQLADRRSTIVKQACHLLCLLSKELLGDFEACAETFIPVLFKLVVITVLVIAESADNCIKTMLRNCKAARVLPRIAESAKHDRNAILRARCCEYALLTLEHWPDAPEIQRSVDLYEDLIRCCVADAMSEVRATARMCYRMFAKTWPDRSRRLFSSFDPVIQRLINEEDGGIHRRHASPSVRERHSQPSFSQTSAPSNLPGYGTSAIVAMDRSSNLSSGGSLSSGLLLSQSKDVNKGSERSLESVLQSSKQKVSAIESMLRGLHISDRQNPAALRSSSLDLGVDPPSSRDPPFHAVAPASNSHTSSAAAESTHSINKGSNRNGGLGLSDIITQIQASKDSGRSSYRGNLLSESHPTFSSLTAKRGSERNERSSLEESNDAREVRRFMAGHFDRQQMDTAYRDLTFRESNASHVPNFQRPLLRKNVGGRMSAGRRRSFDDSQLQIGDISNFVDGPASLNEALNDGLNSSSDWCARVAAFNFLQTLLQQGPKGAQEVIQSFEKVMKLFLRHLDDPHHKVAQAALSTLADLIPSCRKPFESYMERVLPHVFSRLIDPKEVVRQPCSSTLEIVSKTYSVDSLLPALLRSLDEQRSPKAKLAVIEFAINSFNRYAGNPEISGNSGILKLWLAKLTPLTRDKNTKLKEASITCIISVYNHYDSAGLLNYILSLSVEEQNSLRRALKQYTPRIEVDLLNYMQSKKEKQRIKSYDPSDAIGTSSEEGYAGASKKNIFLGRYSGGSIDSDSGRKWSSSQEPTMITGGVGQNVSSGTQEKLYQNVRTGISSASDLLNPKDSDYTFASAGQNSISRTSPNGSSENIEILDDLSPPHLEKNGLNLTSVDSLEGRHENEVSRELDLGHYMLTSIKVNTTPESGPSIPQILHMINGSDGSPSSSKKSGLQQLIEASVANEESVWTKYFNQILTVVLEVLDDEDFSIKELALSLISEMLKSQKDAMEDSVEIVIEKLLHVSKDTVPKVSTEAEQCLTTVLSQYDPFRCLSVIVPLLVTEDEKTLVACINCLTKLVGRLSQEELMDQLSSFLPAVFEAFGSQSADVRKTVVFCLVDIYIMLGKAFLPYLEGLNSTQVRLVTIYANRISQARNGAPIDADT

target: sim3-GFP (Arabidopsis thaliana) (UniProt P93002); experiment: sim3-GFP IP, LC-MS/MS
Sequence (P93002 other isoform, or with tags, fused parts or gaps): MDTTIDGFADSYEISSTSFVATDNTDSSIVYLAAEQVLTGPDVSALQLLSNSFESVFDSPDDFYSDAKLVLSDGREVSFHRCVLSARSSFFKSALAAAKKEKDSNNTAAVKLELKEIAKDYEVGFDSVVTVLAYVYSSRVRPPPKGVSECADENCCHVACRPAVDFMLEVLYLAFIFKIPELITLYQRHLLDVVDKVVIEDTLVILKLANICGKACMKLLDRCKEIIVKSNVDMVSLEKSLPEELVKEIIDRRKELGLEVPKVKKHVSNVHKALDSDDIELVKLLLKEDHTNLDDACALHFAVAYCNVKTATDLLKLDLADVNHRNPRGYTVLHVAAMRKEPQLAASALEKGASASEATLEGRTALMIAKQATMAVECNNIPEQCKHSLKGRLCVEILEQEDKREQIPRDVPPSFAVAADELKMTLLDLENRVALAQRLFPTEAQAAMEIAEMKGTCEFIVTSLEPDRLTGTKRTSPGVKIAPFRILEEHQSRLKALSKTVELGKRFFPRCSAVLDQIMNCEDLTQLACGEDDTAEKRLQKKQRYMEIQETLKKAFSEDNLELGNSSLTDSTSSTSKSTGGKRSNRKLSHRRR

Normalized Fold Change: SA vs Mock | Binder
4.86 fold | B1
8.57 fold | B2
8.99 fold | B3
3.44 fold | B4
4.1 fold | B5
5240 fold | B6
2.47 fold | B7
2.26 fold | B8
2.31 fold | B9
44.1 fold | B10
2550 fold | B11
